Measured values reported in the supplement of paper PMC10126150.
± gives the standard deviation of the averaged measurements.

test system: ATP; test: switch fluorescence ratio, 500 uM ATP over buffer (Cy3 cluster intensity, sum of 5 cycles each) (fold (ratio)); higher = stronger signal-on switching upon ATP binding; sequences stand for … in TCGTCGGCAGCGTCAGATGTGTATAAGAGACAGTTTTTTTTTTTTTTTTTTTTTTTTT…TC; settings: aptamer strand: ATP DNA aptamer (quencher-CACCTGGGGGAGTATTGCGGAGGAAGG + anchor), 100 nM annealed; ATP concentration: 500 uM
Method in brief: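 Switching-strand clusters labelled with Cy3 on a modified Illumina MiSeq flow-cell were annealed to 100 nM quencher-labelled ATP aptamer, imaged in selection buffer, and re-imaged after 15 min with 500 uM ATP at 22 °C. This was done over five cycles with NaOH stripping and re-annealing in between. The fluorescence ratio is summed target-cycle over summed buffer-cycle Cy3 intensity per cluster, averaged per switch-domain sequence, excluding clusters outside 100-1000 RFU.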
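Further: ATP exposure 15 min at 22 °C before imaging.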

| Sequence | switch fluorescence ratio |
| --- | --- |
| TGTTCGGAAA | 1.01 ± 0.014 |
| TTAAGCGAAT | 1.002 ± 0.0059 |
| TACGGTGGGG | 1.01 ± 0.027 |
| TGGATGGTGG | 0.9906 ± 0.0024 |
| AACTATAAGA | 1.06 ± 0.1 |
| AGGTTTGCGG | 1.011 ± 0.0037 |
| CACTAGGGGG | 1.05 ± 0.0083 |
| ATGTATTGCG | 0.988 ± 0.044 |
| GGAGATGTCA | 1.013 ± 0.0081 |
| TTTTTATTTA | 0.991 ± 0.025 |
| ATGTTAGTGA | 0.979 ± 0.042 |
| GGGTGCATTG | 1.03 ± 0.021 |
| ACAAAGTAAA | 1.01 ± 0.035 |
| AGAGTTACCG | 1.04 ± 0.017 |
| ATCAGCCGGC | 0.99 ± 0.034 |
| CGGTGGGCGC | 0.974 ± 0.091 |
| GGGAAAAAGC | 0.993 ± 0.04 |
| GTAGGGGACA | 1.06 ± 0.012 |
| TCTCACGATT | 1.022 ± 0.0061 |
| TATTGGCAGA | 1.008 ± 0.01 |
| GGGCAAGTTA | 1.009 ± 0.007 |
| GTAATGGTTT | 1.07 ± 0.17 |
| ATGGGGGGGG | 1.01 ± 0.039 |

| Sequence | switch fluorescence ratio |
| --- | --- |
| CTGGTAGGGG | 0.983 ± 0.015 |
| GGGAGTGTGC | 1.016 ± 0.0053 |
| CGGTGCGGGA | 1.01 ± 0.011 |
| GGGGAATGAT | 0.98 ± 0.021 |
| ATGCGCAAGG | 1.25 ± 0.033 |
| CTTCTTTTCA | 1.1 ± 0.064 |
| GTGACCGTGT | 1 ± 0.053 |
| TATGCTTGA | 0.986 ± 0.036 |
| AATGGCGCGC | 0.992 ± 0.017 |
| ATAATTCATG | 0.981 ± 0.029 |
| AGTAATTTGT | 0.988 ± 0.019 |
| TAGTTCGTAT | 0.986 ± 0.0099 |
| CAAATTGCTT | 1.01 ± 0.038 |
| AAGCGCGAGG | 1.03 ± 0.022 |
| GGGAATAACG | 0.972 ± 0.058 |
| TTGTTGTTGT | 0.988 ± 0.021 |
| TTGCTTTGTC | 0.994 ± 0.013 |
| GTTTGAGGGA | 0.982 ± 0.035 |
| TATTTAATAG | 1.004 ± 0.0028 |
| TTACACGTAA | 1.31 ± 0.019 |
| GACAAAGGGC | 1.08 ± 0.027 |
| GTATTCTCCA | 1.018 ± 0.0043 |
| TGACATAATT | 1.01 ± 0.046 |

| Sequence | switch fluorescence ratio |
| --- | --- |
| AGGCGCTGGG | 0.999 ± 0.028 |
| GCCTTAGTCT | 0.962 ± 0.098 |
| CTGACAAGGC | 1.61 ± 0.27 |
| CGCGGGTTTT | 1.0416 ± 0.00069 |
| CGAAATTGTG | 1.02 ± 0.022 |
| AACTTGGGGG | 1.021 ± 0.0048 |
| TATTTATGCG | 1.021 ± 0.0091 |
| TGAGTAGAGG | 1 ± 0.02 |
| AGAGGGTTAA | 0.988 ± 0.031 |
| GTTGACGGTA | 1.01 ± 0.015 |
| GAGTAAAGCA | 1.058 ± 0.0031 |
| CCTTGCCGTT | 0.99 ± 0.017 |
| ATGAAGTGGA | 0.9555 ± 0.0093 |
| ACTCGGCCC | 1.23 ± 0.015 |
| TGCACAGGCT | 1.119 ± 0.0062 |
| AGTATTTAGT | 1.003 ± 0.0092 |
| GGAATCTGCC | 1.14 ± 0.024 |
| TGCTGACGGT | 0.993 ± 0.029 |
| TGGGTTATTA | 1 ± 0.018 |
| TGAGTGACTT | 0.974 ± 0.012 |
| CGAAGAGGAG | 0.981 ± 0.011 |
| AAGGTGGTGG | 1.04 ± 0.0016 |
| ATTTATGAG | 0.977 ± 0.036 |

| Sequence | switch fluorescence ratio |
| --- | --- |
| CCATGTAAGA | 1.018 ± 0.0091 |
| CGTATTAGCG | 0.952 ± 0.025 |
| AAGATAACCT | 1.87 ± 0.23 |
| TTTGAGATGG | 0.99 ± 0.024 |
| TGGGGCGTAT | 1.04 ± 0.039 |
| AAGTCGGGGC | 1 ± 0.038 |
| GCCGGTGCTC | 0.996 ± 0.021 |
| TTGTTTGTAT | 0.9647 ± 0.0073 |
| ACTAGGTATG | 1.01 ± 0.032 |
| AAGGAGGGTT | 0.984 ± 0.025 |
| AAATTCATTG | 0.969 ± 0.04 |
| GTTGAGGGGT | 0.993 ± 0.027 |
| GGGATAAAGT | 0.988 ± 0.022 |
| GGGCCACCGA | 0.975 ± 0.0041 |
| GCCTTTGTTT | 0.986 ± 0.02 |
| TTAATGGGCG | 1.09 ± 0.18 |
| TAGAGGTG | 1.11 ± 0.016 |
| GGTACACACA | 1.26 ± 0.061 |
| GACTCATAAT | 1.004 ± 0.0015 |
| GGGCCGGGAC | 0.961 ± 0.01 |
| TAGAGCGTAT | 1 ± 0.033 |
| GGGGGCAGGG | 0.998 ± 0.065 |
| GGGTCTACA | 0.9714 ± 0.0025 |

| Sequence | switch fluorescence ratio |
| --- | --- |
| GACAGTAGGG | 1 ± 0.043 |
| GCCGGGGAGC | 1.02 ± 0.045 |
| TCTCCTGGCT | 1.01 ± 0.014 |
| TACTTACGAT | 1.37 ± 0.065 |
| GGGGTGCCCA | 0.984 ± 0.044 |
| ATTGGAATTG | 1.02 ± 0.035 |
| CATCCGGGGT | 2.04 ± 0.57 |
| GTAGGGGCCT | 1.057 ± 0.0073 |
| TTCAAGTGTT | 0.987 ± 0.029 |
| ACTTAATTTG | 1 ± 0.044 |
| TGCAACACAT | 1.03 ± 0.029 |
| AAGACTGAGC | 1.033 ± 0.0071 |
| CGGGGGAGGA | 0.997 ± 0.011 |
| CGGTCTGGTC | 0.987 ± 0.018 |
| GGGCTCTGAC | 1.049 ± 0.0084 |
| TTACCCGGAA | 1.9 ± 0.048 |
| AAAATGGACA | 1.03 ± 0.019 |
| TAGGTCGCCG | 1 ± 0.044 |
| GGTATCCGGC | 1.03 ± 0.088 |
| CAAATGGTTT | 1.05 ± 0.08 |
| TCTTTCGGAG | 1.33 ± 0.077 |
| TTTTGGGACG | 0.993 ± 0.082 |
| TTTTGGACGG | 1.01 ± 0.032 |

| Sequence | switch fluorescence ratio |
| --- | --- |
| CTCATAGGGG | 1.07 ± 0.024 |
| TGGGAAATAG | 0.9957 ± 0.0041 |
| AGTTATAGTT | 0.997 ± 0.052 |
| TGAGTAAGTA | 0.995 ± 0.048 |
| ATGTAAGCCC | 0.992 ± 0.022 |
| GAAGGGGTAA | 1.18 ± 0.3 |
| TGGTGGCGCG | 0.976 ± 0.027 |
| AACTCTGTCT | 1 ± 0.032 |
| TTGTTCCGTT | 0.9874 ± 0.0066 |
| GCGCTCAGGT | 1.09 ± 0.13 |
| GTGGGGTTGC | 0.984 ± 0.021 |
| TTTCCCAGGT | 3.64 ± 2.7 |
| CTTGGGGGCC | 0.986 ± 0.012 |
| GAATTTAAGT | 1.009 ± 0.0048 |
| GCCGAGAAGT | 0.985 ± 0.027 |
| TAAGCATTTC | 1.34 ± 0.11 |
| ATCGATCGTT | 0.9986 ± 0.0027 |
| AATTGGTAGC | 0.966 ± 0.015 |
| AGGGATATTT | 1.01 ± 0.033 |
| GGGTTATTGT | 1 ± 0.016 |
| AGATTTTCCG | 1.01 ± 0.023 |
| GAGGGGGGTT | 1 ± 0.027 |
| GATGTAATTG | 0.9822 ± 0.0094 |

| Sequence | switch fluorescence ratio |
| --- | --- |
| GATTGAGTTT | 0.9866 ± 0.0089 |
| CAGGCGTTGC | 1.17 ± 0.19 |
| ACGTCTAGTG | 0.965 ± 0.023 |
| GAGGGAGGTA | 0.9658 ± 0.006 |
| TTCTTGGTG | 1.02 ± 0.072 |
| GGCTGGGTTT | 1.02 ± 0.026 |
| AAATATGGTG | 1 ± 0.021 |
| AGGAGGAAAG | 0.987 ± 0.028 |
| GACCAAGTCA | 0.997 ± 0.026 |
| GAACTGGCGC | 1.02 ± 0.096 |
| TAAATGTTGT | 0.9869 ± 0.0055 |
| TTCTCGGATG | 0.995 ± 0.015 |
| GGGGCTTAGC | 1.02 ± 0.046 |
| TTACGGGGTG | 1.02 ± 0.019 |
| TTTATATC | 1.07 ± 0.11 |
| CGAGGGTTAT | 1.005 ± 0.0054 |
| ATGGGTTTGT | 1.02 ± 0.021 |
| AGCCGTCAAC | 1.05 ± 0.041 |
| TAGGATGGTG | 1.03 ± 0.11 |
